Results reported in patent publication US20210308031.

Key:
[1] = system: Unhydroxylated collagen purified from strain PP434 (vector MMV411)
[2] = system: (Pro-Pro-Gly)10 peptide model substrate

With “AB fusion protein with the His tag (P4HA1 at the N-terminus, GSGSGS linker, P4HB at the C-terminus, six histidines), encoded by plasmid MMV502” the “% Hydroxyproline (in vitro hydroxylation, 5 uM enzyme, 2 uM collagen, 32 C, 1 hour); enzyme from strain PP547” value [1] was 34.8%, the “% Hydroxyproline (in vitro hydroxylation, 5 uM enzyme, 2 uM collagen, 32 C, 1 hour); enzyme from strain PP635” value [1] was 26.6% and the “alpha-ketoglutaric acid consumption over time” value [2] was “there was less a ketoglutaric acid in the sample with the AB fusion protein than the sample with native P4HA and P4HB proteins”.
